Laboratory results published in patent US20100273186A1, “SPLIT MUTANT HYDROLASE FUSION REPORTER AND USES THEREOF” (Promega Corporation, priority 2007, published 2010).

What was measured:
[1] = Binding of substrate to DhaA mutants
Description: (§1) Carboxytetramethylrhodamine-C10H21NO2—Cl, carboxyfluorescein-C10H21NO2—Cl, and 5-carboxy-X-rhodamine-C10H21NO2—Cl bound to DhaA.H272F but not to DhaA.WT. Biotin-C10H21NO2—Cl bound to DhaA.H272F but not to DhaA.WT.
DhaA.H272 mutants, i.e. H272F/G/A/Q, bound to carboxytetramethylrhodamine-C10H21NO2—Cl.
A control mutant, DhaA.D106Q, single mutants DhaA.D106C, DhaA.D106Y, and DhaA.D106E, as well as double mutants DhaA.D106C:H272F, DhaA.D106E:H272F, DhaA.D106Q:H272F, and DhaA.D106Y:H272F were analyzed for binding to carboxytetramethylrhodamine-C10H21NO2—Cl. Carboxytetramethylrhodamine-C10H21NO2—Cl bound to DhaA.D106C, DhaA.D106C:H272F, DhaA.D106E, and DhaA.H272F. Thus, the bond formed between carboxytetramethylrhodamine-C10H21NO2—Cl and cysteine or glutamate at residue 106 in a mutant DhaA is stable relative to the bond formed between carboxytetramethylrhodamine-C10H21NO2—Cl and DhaA.WT. Other substitutions at position 106 alone or in combination with substitutions at other residues in DhaA may yield similar results. Further, certain substitutions at position 106 alone or in combination with substitutions at other residues in DhaA may result in a mutant DhaA that forms a bond with only certain substrates.

[2] = Fluorescence polarization (FP) labeling assay; type: binding; details: relative to DhaA.H272F H11YL
Description: Fluorescence polarization (FP) is ideal for the study of small fluorescent ligands binding to proteins. It is unique among methods used to analyze molecular binding because it gives direct nearly instantaneous measure of a substrate bound/free ratio. Therefore, an FP assay was developed as an alternative approach to fluorimage gel analysis of the purified DhaA mutants. […] To place this rate in perspective, approximately 42 and 420-fold more A7 and parental, i.e., DhaA.H272F, protein, respectively, was required in the reaction to obtain measurable rates. Under the labeling conditions used, it is evident that the H11YL mutant was also considerably faster than A7 and parental, DhaA.H272F proteins with the fluorescein-based substrate. However, it appears that labeling of H11YL with carboxyfluorescein-C10H21NO2—Cl is markedly slower than labeling with the corresponding carboxytetramethylrhodamine-C10H21NO2—Cl substrate. Four-fold more H11YL protein was used in the carboxyfluorescein-C10H21NO2—Cl reaction (150 nM) versus the carboxytetramethylrhodamine-C10H21NO2—Cl reaction (35 nM), yet the rate observed appeared to be qualitatively slower than the observed carboxytetramethylrhodamine-C10H21NO2—Cl rate.
Based on the sensitivity and truly homogenous nature of this assay, FP was used to characterize the labeling properties of the purified DhaA mutants with the fluorescently coupled substrates. The data from these studies was then used to calculate a second order rate constant for each DhaA mutant-substrate pair. […] However, in each case labeling was slower with the carboxyfluorescein-C10H21NO2—Cl substrate. All of the first generation DhaA mutants characterized by FP had rates that ranged from 7 to 3555-fold faster than the corresponding parental protein. By far, the biggest impact on labeling rate by a single amino acid substitution occurred with the three replacements at the 273 position (Y273L, Y273M, and Y273C) in the DhaA.H272F background. Nevertheless, in each of the first generation DhaA.H272F mutants tested, labeling with the carboxyfluorescein-C10H21NO2—Cl substrate always occurred at a slower rate (1.6 to 46-fold). […] The H11YL rate constant of 2.2×10^6 M^−1 sec^−1 was nearly identical to the rate constant calculated for a carboxytetramethylrhodamine-coupled biotin/streptavidin interaction. This value is consistent with an on-rate of 5×10^6 M^−1 sec^1 determined for a biotin-streptavidin interaction using surface plasmon resonance analysis (Qureshi et al., 2001). Several of the second generation mutants also had improved rates with the carboxyfluorescein-C10H21NO2—Cl substrate, however, as noted previously, these rates were always slower than with the carboxytetramethylrhodamine-C10H21NO2—Cl substrate. […]

[3] = Binding of substrate to DhaA mutants; remark: listed apart in the source
Description: as §1

MagneGST-based assay = type: binding
Description: An automated MagneGST™-based assay was used to screen the DhaA mutant protein libraries. […] For clones with at least 50% higher activity than the DhaA.H272F parent, the overall hit rate of the libraries examined varied from between 1-3%. Similar screening results were obtained for the DhaA.D106C libraries (data not shown). The hits identified by the initial primary screen were located in the master plates, consolidated, re-grown and reanalyzed using the MagneGST™ assay. Only those DhaA mutants with at least a 2-fold higher signal than the parental control upon reanalysis were chosen for sequence analysis.
The results of these analyses were consistent with protein labeling studies using SDS-PAGE fluorimage gel analysis. In an effort to determine if combinations of the best mutations identified in the DhaA.H272F background were additive, the three mutations at residue 273 were recombined with the DhaA.H272F A7 and DhaA.H272F H11 mutations. In order to distinguish these recombined protein mutants from the mutants identified in round one of screening (first generation), they are referred to as “second generation” DhaA mutants.

Row | Molecule | binding to carboxytetramethylrhodamine-C10H21NO2—Cl [1] | improvement over the parental clones (MagneGST-based assay) | also measured
1 | DhaA.H272F: DhaA mutant, catalytic triad His272 replaced with Phe (protein, UniProt P0A3G2 1-293, looked up, variant H272F) Haloalkane dehalogenase: MSEIGTGFPFDPHYVEVLGERMHYVDVGPRDGTPVLFLHGNPTSSYLWRNIIPHVAPSHRCIAPDLIGMGKSDKPDLDYFFDDHVRYLDAFIEALGLEEVVLVIHDWGSALGFHWAKRNPERVKGIACMEFIRPIPTWDEWPEFARETFQAFRTADVGRELIIDQNAFIEGALPKCVVRPLTEVEMDHYREPFLKPVDREPLWRFPNELPIAGEPANIVALVEAYMNWLHQSPVPKLLFWGTPGVLIPPAEAARLAESLPNCKTVDIGPGLFYLQEDNPDLIGSEIARWLPAL | bound |  | fold more protein required in the reaction to obtain measurable rates [2]: ~420 fold; binding to 5-carboxy-X-rhodamine-C10H21NO2—Cl [3]: bound; binding to Biotin-C10H21NO2—Cl [3]: bound; binding to carboxyfluorescein-C10H21NO2—Cl [3]: bound
2 | DhaA.WT: wild type Rhodococcus rhodochrous dehalogenase (DhaA), SEQ ID NO:1 (protein, listed as Rhodococcus rhodochrous) MSEIGTGFPFDPHYVEVLGERMHYVDVGPRDGTPVLFLHGNPTSSYLWRNIIPHVAPSHRCIAPDLIGMGKSDKPDLDYFFDDHVRYLDAFIEALGLEEVVLVIHDWGSALGFHWAKRNPERVKGIACMEFIRPIPTWDEWPEFARETFQAFRTADVGRELIIDQNAFIEGALPKCVVRPLTEVEMDHYREPFLKPVDREPLWRFPNELPIAGEPANIVALVEAYMNWLHQSPVPKLLFWGTPGVLIPPAEAARLAESLPNCKTVDIGPGLHYLQEDNPDLIGSEIARWLPAL | not |  | binding to 5-carboxy-X-rhodamine-C10H21NO2—Cl [3]: not; binding to Biotin-C10H21NO2—Cl [3]: not; binding to carboxyfluorescein-C10H21NO2—Cl [3]: not
3 | DhaA.D106C: DhaA mutant, Asp106 replaced with Cys (protein, UniProt P0A3G2 1-293, looked up, variant D106C) Haloalkane dehalogenase: MSEIGTGFPFDPHYVEVLGERMHYVDVGPRDGTPVLFLHGNPTSSYLWRNIIPHVAPSHRCIAPDLIGMGKSDKPDLDYFFDDHVRYLDAFIEALGLEEVVLVIHCWGSALGFHWAKRNPERVKGIACMEFIRPIPTWDEWPEFARETFQAFRTADVGRELIIDQNAFIEGALPKCVVRPLTEVEMDHYREPFLKPVDREPLWRFPNELPIAGEPANIVALVEAYMNWLHQSPVPKLLFWGTPGVLIPPAEAARLAESLPNCKTVDIGPGLHYLQEDNPDLIGSEIARWLPAL | bound |  | 
4 | DhaA.D106C:H272F: DhaA double mutant D106C and H272F (protein, UniProt P0A3G2 1-293, looked up, variant D106C H272F) Haloalkane dehalogenase: MSEIGTGFPFDPHYVEVLGERMHYVDVGPRDGTPVLFLHGNPTSSYLWRNIIPHVAPSHRCIAPDLIGMGKSDKPDLDYFFDDHVRYLDAFIEALGLEEVVLVIHCWGSALGFHWAKRNPERVKGIACMEFIRPIPTWDEWPEFARETFQAFRTADVGRELIIDQNAFIEGALPKCVVRPLTEVEMDHYREPFLKPVDREPLWRFPNELPIAGEPANIVALVEAYMNWLHQSPVPKLLFWGTPGVLIPPAEAARLAESLPNCKTVDIGPGLFYLQEDNPDLIGSEIARWLPAL | bound |  | 
5 | DhaA.D106E: DhaA single mutant D106E (protein, UniProt P0A3G2 1-293, looked up, variant D106E) Haloalkane dehalogenase: MSEIGTGFPFDPHYVEVLGERMHYVDVGPRDGTPVLFLHGNPTSSYLWRNIIPHVAPSHRCIAPDLIGMGKSDKPDLDYFFDDHVRYLDAFIEALGLEEVVLVIHEWGSALGFHWAKRNPERVKGIACMEFIRPIPTWDEWPEFARETFQAFRTADVGRELIIDQNAFIEGALPKCVVRPLTEVEMDHYREPFLKPVDREPLWRFPNELPIAGEPANIVALVEAYMNWLHQSPVPKLLFWGTPGVLIPPAEAARLAESLPNCKTVDIGPGLHYLQEDNPDLIGSEIARWLPAL | bound |  | 
6 | YL: DhaA.H272F based mutant with Y273L (protein, UniProt P0A3G2 1-293, looked up, variant H272F Y273L) Haloalkane dehalogenase: MSEIGTGFPFDPHYVEVLGERMHYVDVGPRDGTPVLFLHGNPTSSYLWRNIIPHVAPSHRCIAPDLIGMGKSDKPDLDYFFDDHVRYLDAFIEALGLEEVVLVIHDWGSALGFHWAKRNPERVKGIACMEFIRPIPTWDEWPEFARETFQAFRTADVGRELIIDQNAFIEGALPKCVVRPLTEVEMDHYREPFLKPVDREPLWRFPNELPIAGEPANIVALVEAYMNWLHQSPVPKLLFWGTPGVLIPPAEAARLAESLPNCKTVDIGPGLFLLQEDNPDLIGSEIARWLPAL |  | significantly improved | 
7 | YM: DhaA.H272F based mutant with Y273M (protein, UniProt P0A3G2 1-293, looked up, variant H272F Y273M) Haloalkane dehalogenase: MSEIGTGFPFDPHYVEVLGERMHYVDVGPRDGTPVLFLHGNPTSSYLWRNIIPHVAPSHRCIAPDLIGMGKSDKPDLDYFFDDHVRYLDAFIEALGLEEVVLVIHDWGSALGFHWAKRNPERVKGIACMEFIRPIPTWDEWPEFARETFQAFRTADVGRELIIDQNAFIEGALPKCVVRPLTEVEMDHYREPFLKPVDREPLWRFPNELPIAGEPANIVALVEAYMNWLHQSPVPKLLFWGTPGVLIPPAEAARLAESLPNCKTVDIGPGLFMLQEDNPDLIGSEIARWLPAL |  | significantly improved | 
8 | YC: DhaA.H272F based mutant with Y273C (protein, UniProt P0A3G2 1-293, looked up, variant H272F Y273C) Haloalkane dehalogenase: MSEIGTGFPFDPHYVEVLGERMHYVDVGPRDGTPVLFLHGNPTSSYLWRNIIPHVAPSHRCIAPDLIGMGKSDKPDLDYFFDDHVRYLDAFIEALGLEEVVLVIHDWGSALGFHWAKRNPERVKGIACMEFIRPIPTWDEWPEFARETFQAFRTADVGRELIIDQNAFIEGALPKCVVRPLTEVEMDHYREPFLKPVDREPLWRFPNELPIAGEPANIVALVEAYMNWLHQSPVPKLLFWGTPGVLIPPAEAARLAESLPNCKTVDIGPGLFCLQEDNPDLIGSEIARWLPAL |  | significantly improved | 
